Measured values published in IntAct's records for PubMed 31515488.

B1: Tuftelin-interacting protein 11 (Homo sapiens), Q9UBB9 (parent)
chain: MSLSHLYRDGEGRIDDDDDERENFEITDWDLQNEFNPNRQRHWQTKEEATYGVWAERDSDDERPSFGGKRARDYSAPVNFISAGLKKGAAEEAELEDSDDEEKPVKQDDFPKDFGPRKLKTGGNFKPSQKGFAGGTKSFMDFGSWERHTKGIGQKLLQKMGYVPGRGLGKNAQGIINPIEAKQRKGKGAVGAYGSERTTQSMQDFPVVDSEEEAEEEFQKELSQWRKDPSGSKKKPKYSYKTVEELKAKGRISKKLTAPQKELSQVKVIDMTGREQKVYYSYSQISHKHNVPDDGLPLQSQQLPQSGKEAKAPGFALPELEHNLQLLIDLTEQEIIQNDRQLQYERDMVVNLFHELEKMTEVLDHEERVISNLSKVLEMVEECERRMQPDCSNPLTLDECARIFETLQDKYYEEYRMSDRVDLAVAIVYPLMKEYFKEWDPLKDCTYGTEIISKWKSLLENDQLLSHGGQDLSADAFHRLIWEVWMPFVRNIVTQWQPRNCDPMVDFLDSWVHIIPVWILDNILDQLIFPKLQKEVENWNPLTDTVPIHSWIHPWLPLMQARLEPLYSPIRSKLSSALQKWHPSDSSAKLILQPWKDVFTPGSWEAFMVKNIVPKLGMCLGELVINPHQQHMDAFYWVIDWEGMISVSSLVGLLEKHFFPKWLQVLCSWLSNSPNYEEITKWYLGWKSMFSDQVLAHPSVKDKFNEALDIMNRAVSSNVGAYMQPGARENIAYLTHTERRKDFQYEAMQERREAENMAQRGIGVAASSVPMNFKDLIETKAEEHNIVFMPVIGKRHEGKQLYTFGRIVIYIDRGVVFVQGEKTWVPTSLQSLIDMAK
partner: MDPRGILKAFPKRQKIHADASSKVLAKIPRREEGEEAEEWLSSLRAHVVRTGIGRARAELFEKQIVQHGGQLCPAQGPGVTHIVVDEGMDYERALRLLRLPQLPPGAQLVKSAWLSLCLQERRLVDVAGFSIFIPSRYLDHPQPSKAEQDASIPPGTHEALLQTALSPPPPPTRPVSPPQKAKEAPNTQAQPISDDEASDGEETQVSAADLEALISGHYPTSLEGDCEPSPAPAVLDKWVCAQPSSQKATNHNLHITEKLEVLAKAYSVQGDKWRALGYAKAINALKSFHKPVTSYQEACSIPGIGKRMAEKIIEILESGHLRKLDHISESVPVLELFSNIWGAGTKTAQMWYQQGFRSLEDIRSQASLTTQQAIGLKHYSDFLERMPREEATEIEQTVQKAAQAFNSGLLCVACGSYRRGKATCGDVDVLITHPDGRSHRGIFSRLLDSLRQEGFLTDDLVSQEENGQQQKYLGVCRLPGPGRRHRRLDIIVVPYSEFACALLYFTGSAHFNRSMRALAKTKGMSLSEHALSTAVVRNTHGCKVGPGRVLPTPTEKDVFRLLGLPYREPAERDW
B2: Histone-lysine N-methyltransferase SMYD1 (Homo sapiens), Q8NB12 (parent)
chain: MTIGRMENVEVFTAEGKGRGLKATKEFWAADIIFAERAYSAVVFDSLVNFVCHTCFKRQEKLHRCGQCKFAHYCDRTCQKDAWLNHKNECSAIKRYGKVPNENIRLAARIMWRVEREGTGLTEGCLVSVDDLQNHVEHFGEEEQKDLRVDVDTFLQYWPPQSQQFSMQYISHIFGVINCNGFTLSDQRGLQAVGVGIFPNLGLVNHDCWPNCTVIFNNGNHEAVKSMFHTQMRIELRALGKISEGEELTVSYIDFLNVSEERKRQLKKQYYFDCTCEHCQKKLKDDLFLGVKDNPKPSQEVVKEMIQFSKDTLEKIDKARSEGLYHEVVKLCRECLEKQEPVFADTNIYMLRMLSIVSEVLSYLQAFEEASFYARRMVDGYMKLYHPNNAQLGMAVMRAGLTNWHAGNIEVGHGMICKAYAILLVTHGPSHPITKDLEAMRVQTEMELRMFRQNEFMYYKMREAALNNQPMQVMAEPSNEPSPALFHKKQ
B3: X-linked retinitis pigmentosa GTPase regulator (Homo sapiens), Q92834 (parent)
chain: MREPEELMPDSGAVFTFGKSKFAENNPGKFWFKNDVPVHLSCGDEHSAVVTGNNKLYMFGSNNWGQLGLGSKSAISKPTCVKALKPEKVKLAACGRNHTLVSTEGGNVYATGGNNEGQLGLGDTEERNTFHVISFFTSEHKIKQLSAGSNTSAALTEDGRLFMWGDNSEGQIGLKNVSNVCVPQQVTIGKPVSWISCGYYHSAFVTTDGELYVFGEPENGKLGLPNQLLGNHRTPQLVSEIPEKVIQVACGGEHTVVLTENAVYTFGLGQFGQLGLGTFLFETSEPKVIENIRDQTISYISCGENHTALITDIGLMYTFGDGRHGKLGLGLENFTNHFIPTLCSNFLRFIVKLVACGGCHMVVFAAPHRGVAKEIEFDEINDTCLSVATFLPYSSLTSGNVLQRTLSARMRRRERERSPDSFSMRRTLPPIEGTLGLSACFLPNSVFPRCSERNLQESVLSEQDLMQPEEPDYLLDEMTKEAEIDNSSTVESLGETTDILNMTHIMSLNSNEKSLKLSPVQKQKKQQTIGELTQDTALTENDDSDEYEEMSEMKEGKACKQHVSQGIFMTQPATTIEAFSDEEVGNDTGQVGPQADTDGEGLQKEVYRHENNNGVDQLDAKEIEKESDGGHSQKESEAEEIDSEKETKLAEIAGMKDLREREKSTKKMSPFFGNLPDRGMNTESEENKDFVKKRESCKQDVIFDSERESVEKPDSYMEGASESQQGIADGFQQPEAIEFSSGEKEDDEVETDQNIRYGRKLIEQGNEKETKPIISKSMAKYDFKCDRLSEIPEEKEGAEDSKGNGIEEQEVEANEENVKVHGGRKEKTEILSDDLTDKAEDHEFSKTEELKLEDVDEEINAENVESKKKTVGDDESVPTGYHSKTEGAERTNDDSSAETIEKKEKANLEERAICEYNENPKGYMLDDADSSSLEILENSETTPSKDMKKTKKIFLFKRVPSINQKIVKNNNEPLPEIKSIGDQIILKSDNKDADQNHMSQNHQNIPPTNTERRSKSCTIL
partner: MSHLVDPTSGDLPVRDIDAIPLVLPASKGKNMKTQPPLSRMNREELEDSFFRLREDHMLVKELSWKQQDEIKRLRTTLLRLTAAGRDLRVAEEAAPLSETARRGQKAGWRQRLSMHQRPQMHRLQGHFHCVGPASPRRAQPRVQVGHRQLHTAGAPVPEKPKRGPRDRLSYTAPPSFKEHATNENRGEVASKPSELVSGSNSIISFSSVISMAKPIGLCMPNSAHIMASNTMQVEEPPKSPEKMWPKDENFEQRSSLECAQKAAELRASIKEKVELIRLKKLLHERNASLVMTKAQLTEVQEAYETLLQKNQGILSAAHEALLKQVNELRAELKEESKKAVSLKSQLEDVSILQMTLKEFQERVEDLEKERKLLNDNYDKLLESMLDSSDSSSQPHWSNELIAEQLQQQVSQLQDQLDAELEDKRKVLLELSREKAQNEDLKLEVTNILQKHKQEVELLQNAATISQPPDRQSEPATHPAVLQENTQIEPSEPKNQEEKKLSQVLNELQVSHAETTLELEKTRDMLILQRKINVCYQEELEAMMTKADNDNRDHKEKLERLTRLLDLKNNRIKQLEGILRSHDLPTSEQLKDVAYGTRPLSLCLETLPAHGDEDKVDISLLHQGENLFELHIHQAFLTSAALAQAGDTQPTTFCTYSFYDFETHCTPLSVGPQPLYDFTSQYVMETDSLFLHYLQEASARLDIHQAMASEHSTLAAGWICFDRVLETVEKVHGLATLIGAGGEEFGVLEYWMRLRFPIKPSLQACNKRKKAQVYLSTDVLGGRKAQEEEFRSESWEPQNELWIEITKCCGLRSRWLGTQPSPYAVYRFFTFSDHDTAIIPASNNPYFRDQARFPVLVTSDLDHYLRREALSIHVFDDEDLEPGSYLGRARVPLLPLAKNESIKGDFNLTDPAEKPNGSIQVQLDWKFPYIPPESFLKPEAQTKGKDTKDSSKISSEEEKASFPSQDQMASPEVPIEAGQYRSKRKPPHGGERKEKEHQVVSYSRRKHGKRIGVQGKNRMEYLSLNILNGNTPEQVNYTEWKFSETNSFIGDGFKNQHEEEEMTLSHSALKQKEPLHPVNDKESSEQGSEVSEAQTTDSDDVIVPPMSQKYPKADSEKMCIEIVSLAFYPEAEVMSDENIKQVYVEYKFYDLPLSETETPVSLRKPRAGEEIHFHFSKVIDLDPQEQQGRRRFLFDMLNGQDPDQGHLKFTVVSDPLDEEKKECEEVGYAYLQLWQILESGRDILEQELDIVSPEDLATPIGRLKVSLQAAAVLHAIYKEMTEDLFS

Variants of: B1
Conditions: with dpoll_human POLL

Row | effect of a mutation on the interaction | Variant
1 | with no effect | R8Q
2 | with no effect | S688L

Variants of: B2
Conditions: with bhe40_human BHLHE40, O14503
bhe40_human BHLHE40, O14503, sequence (O14503 whole entry): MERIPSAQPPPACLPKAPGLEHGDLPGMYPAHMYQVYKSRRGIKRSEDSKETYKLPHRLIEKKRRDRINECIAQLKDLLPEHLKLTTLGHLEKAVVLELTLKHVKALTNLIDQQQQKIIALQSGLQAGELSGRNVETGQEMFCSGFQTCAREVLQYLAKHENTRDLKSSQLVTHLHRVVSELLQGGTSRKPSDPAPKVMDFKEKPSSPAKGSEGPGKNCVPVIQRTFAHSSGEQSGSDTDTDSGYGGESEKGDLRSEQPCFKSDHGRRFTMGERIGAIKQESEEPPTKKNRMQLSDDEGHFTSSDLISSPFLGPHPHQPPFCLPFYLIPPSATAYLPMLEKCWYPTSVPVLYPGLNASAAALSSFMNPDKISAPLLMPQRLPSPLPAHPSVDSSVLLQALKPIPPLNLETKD

Row | effect of a mutation on the interaction | Variant
3 | with no effect | R441W

Variants of: B3
Conditions: with rpgr1_human RPGRIP1, Q96KN7

Row | effect of a mutation on the interaction | Variant
4 | with no effect | I431V
5 | with no effect | C302S
6 | with no effect | I75V
